Experimental data published in the supplement of paper PMC10724198.
± gives the standard deviation of the averaged measurements.

Each sequence was assayed on Saccharomyces cerevisiae (assay: protein stability index of tFT-peptide fusion (C-terminal peptide) (PSI (0-1 scale)); higher = more stable (slower turnover)). Settings: genetic background: wild type; temperature: 30 C.
Experimental: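 Multiplexed protein stability (MPS) profiling in S. cerevisiae. Random 12-aa peptides (tFT-X12 library) are fused to the C-terminus of a sfGFP-mCherry tandem fluorescent timer, after mCherry and a GGGS linker. Cells are FACS-sorted into 8 mCherry/sfGFP bins and deep-sequenced. The protein stability index (PSI) is the read-weighted bin average, scaled from 0 (unstable) to 1 (stable). Only peptides with >10 reads are reported; cells were grown at 30 °C in SC-His with glucose.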
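Also: PSI is a weighted mean of sequencing reads over stability bins, variants kept only with over 10 reads, mCherry proximal and sfGFP distal, peptide attached via GGGS linker.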

| Sequence | protein stability index |
| --- | --- |
| AAALPSNLLSSF | 0.656 ± 0.017 |
| AACSCGCLTGVG | 0.527 ± 0.012 |
| AALVFPSCVVGG | 0.60949 ± 0.00034 |
| AAPAAPATPSPR | 0.716 ± 0.065 |
| AAPDSGTPPLAA | 0.6435 ± 0.0043 |
| AAPPAYGPPPPP | 0.6974 ± 0.0025 |
| AARWHEPLSRER | 0.699 ± 0.029 |
| AAVRGAYPDSEG | 0.64 ± 0.043 |
| AAWPYKYYLAHI | 0.617 ± 0.061 |
| ACGLGGPSDIDN | 0.672 ± 0.013 |
| ACGSRGGQTERP | 0.7143 ± 0.0066 |
| ACPPRPPFRSPS | 0.698 ± 0.026 |
| ADKIPHSDNRSR | 0.697 ± 0.01 |
| ADLTTPHPDPRP | 0.674 ± 0.0096 |
| AEKKEERQRTSN | 0.681 ± 0.032 |
| AEKSYRYIYGKT | 0.669 ± 0.029 |
| AELVVRNGVGGI | 0.831 ± 0.077 |
| AERARRERRGGV | 0.712 ± 0.1 |
| AERKTKASRRKE | 0.654 ± 0.019 |
| AESCRASVVFGV | 0.6849 ± 0.0041 |
| AESLGLNYGSVY | 0.657 ± 0.05 |
| AFCFCIFSSFLV | 0.535 ± 0.021 |
| AFFLHKTFRSSF | 0.732 ± 0.028 |
| AFGSVSLSCLWV | 0.676 ± 0.073 |
| AFPSLRSLPLFS | 0.608 ± 0.024 |
| AFPSPPATPSSQ | 0.645 ± 0.079 |

| Sequence | protein stability index |
| --- | --- |
| AFRCGGAPGDFA | 0.654 ± 0.0094 |
| AFRISLSCPISL | 0.619 ± 0.056 |
| AFTPGTTVYVSQ | 0.699 ± 0.037 |
| AFYGDNNTVERM | 0.762 ± 0.053 |
| AGAGLGGVLGWW | 0.671 ± 0.02 |
| AGARPEGPRWGE | 0.703 ± 0.021 |
| AGESPDLSARCG | 0.661 ± 0.11 |
| AGFCRVFSYDFV | 0.708 ± 0.04 |
| AGGAASWPAFFP | 0.793 ± 0.02 |
| AGGGARLGVGRA | 0.637 ± 0.065 |
| AGGGLGAEGCGG | 0.788 ± 0.038 |
| AGGGLGGGGGGP | 0.729 ± 0.031 |
| AGGLCEGGWRGR | 0.6885 ± 0.0035 |
| AGGQRCNWGNTI | 0.6778 ± 0.0053 |
| AGGRGVPSMGNG | 0.644 ± 0.033 |
| AGGVEGRRRVGE | 0.642 ± 0.073 |
| AGHFITRTGGPT | 0.7 ± 0.07 |
| AGHFRVRWGVWS | 0.651 ± 0.056 |
| AGHILSDGTYLP | 0.826 ± 0.13 |
| AGISSLLVQSVP | 0.679 ± 0.049 |
| AGMRRRGGAGGW | 0.684 ± 0.052 |
| AGPAIEGARAPR | 0.7684 ± 0.0022 |
| AGPATSSSPPVS | 0.688 ± 0.032 |
| AGPGGSGGAGEP | 0.68 ± 0.026 |
| AGQWGCAGGGEW | 0.703 ± 0.013 |
| AGRRASGRVGSG | 0.728 ± 0.018 |

| Sequence | protein stability index |
| --- | --- |
| AGTIRTTPLTAL | 0.643 ± 0.033 |
| AGVTGGDGYGRW | 0.583 ± 0.064 |
| AGVVRGGRGVGI | 0.728 ± 0.025 |
| AGWCKGMWVSLG | 0.656 ± 0.036 |
| AGWKGGTSRGER | 0.6618 ± 0.0053 |
| AHTPGTHLGRKT | 0.71 ± 0.0082 |
| AICRVGGFGRKD | 0.717 ± 0.01 |
| AIIKADKIRRKK | 0.6751 ± 0.0028 |
| AIKCSDTLLTWV | 0.7194 ± 0.0042 |
| AILSTSHSPWNS | 0.737 ± 0.053 |
| AINAHGISKSYA | 0.688 ± 0.019 |
| AIRIERLGLAIP | 0.682 ± 0.033 |
| AIRLFFRSDARG | 0.618 ± 0.014 |
| AKEIVYAPRNPD | 0.645 ± 0.053 |
| AKKKEIQSTKHK | 0.705 ± 0.0093 |
| AKPPLAPSRNAL | 0.656 ± 0.029 |
| AKSKALGLSPRS | 0.649 ± 0.046 |
| AKTQGLLMVTLQ | 0.712 ± 0.12 |
| ALASPIPCPPPP | 0.715 ± 0.056 |
| ALCEIWQSLLLA | 0.456 ± 0.13 |
| ALFLFGSDRFFV | 0.747 ± 0.026 |
| ALFNEVFRSLLL | 0.712 ± 0.054 |
| ALFPNALYQTLL | 0.723 ± 0.05 |
| ALFTFFSARLTR | 0.748 ± 0.044 |
| ALGGPPLSPSPH | 0.7299 ± 0.007 |
| ALHHPPLPHPRS | 0.663 ± 0.084 |

| Sequence | protein stability index |
| --- | --- |
| ALIFPLPASSTF | 0.609 ± 0.038 |
| ALIYMRGLGRFF | 0.555 ± 0.025 |
| ALLPLTHLPLHP | 0.666 ± 0.1 |
| ALLPPPCFFLLP | 0.673 ± 0.0041 |
| ALLPVLPSRPAP | 0.7431 ± 0.0046 |
| ALLRSLSSLPLV | 0.602 ± 0.011 |
| ALLSFVVSSGPA | 0.675 ± 0.026 |
| ALMEFLVFSRCG | 0.642 ± 0.074 |
| ALPETKVSRRQS | 0.677 ± 0.11 |
| ALPIVPDVCFSP | 0.679 ± 0.051 |
| ALPPIARPPPRV | 0.733 ± 0.029 |
| ALPRAPSRPPAR | 0.67 ± 0.042 |
| ALPSALPPLPPP | 0.723 ± 0.055 |
| ALRFLISCRLLD | 0.62622 ± 0.00026 |
| ALRGSYTSFALA | 0.623 ± 0.066 |
| ALSTFTGFLRIP | 0.55 ± 0.01 |
| ALVGMNVQRRRV | 0.705 ± 0.018 |
| ALVRVVRGIGFC | 0.697 ± 0.062 |
| ALWWRVGCGVGL | 0.657 ± 0.042 |
| AMAELVCVSLRC | 0.536 ± 0.016 |
| ANAPPTASFSPP | 0.6745 ± 0.0014 |
| ANEAAYICKGNG | 0.682 ± 0.039 |
| APDPARPSTRPL | 0.6892 ± 0.0058 |
| APGACWKERWVR | 0.737 ± 0.037 |
| APGPPLLLPPPL | 0.697 ± 0.1 |
| APGWNNMALDVD | 0.728 ± 0.021 |

| Sequence | protein stability index |
| --- | --- |
| APHYPTGPTVKI | 0.692 ± 0.033 |
| APLLAPPPPSRT | 0.642 ± 0.009 |
| APLPPRSALVGL | 0.6759 ± 0.0011 |
| APPDQPEEGTRA | 0.6332 ± 0.0033 |
| APPEAPQEPLTL | 0.727 ± 0.0092 |
| APPFRLLPLPSP | 0.7573 ± 0.005 |
| APPLSLPPRLFL | 0.69 ± 0.035 |
| APPPAYGPPPPP | 0.692 ± 0.044 |
| APPPPFCHAPTS | 0.6366 ± 0.00082 |
| APPPSLHCLRLP | 0.725 ± 0.071 |
| APPRLSPLPPPP | 0.6848 ± 0.0065 |
| APPRPPPPSPIP | 0.726 ± 0.057 |
| APPRSPLFSSLF | 0.638 ± 0.01 |
| APPTPPHPRPSS | 0.7269 ± 0.0036 |
| APPTTPPPGTHP | 0.696 ± 0.069 |
| APRPAPRPTPLG | 0.706 ± 0.051 |
| APRPPPCPRPGT | 0.7499 ± 0.003 |
| APRPRSPLLPPA | 0.648 ± 0.019 |
| APSPLLPPHSPP | 0.612 ± 0.043 |
| APSVSHAPSRLL | 0.706 ± 0.023 |
| APVHPPPGFLLP | 0.695 ± 0.023 |
| APVTFDKSHVST | 0.669 ± 0.031 |
| APYPVSRGLLGF | 0.656 ± 0.057 |
| AQAEGLYRGTAD | 0.657 ± 0.011 |
| AQAPVDPTPVPL | 0.658 ± 0.11 |
| AQCAFIKAGVTW | 0.686 ± 0.051 |

| Sequence | protein stability index |
| --- | --- |
| AQCDAVPFMFCV | 0.663 ± 0.025 |
| AQPFATTGGGLV | 0.69 ± 0.24 |
| AQPRGLLVCPFL | 0.664 ± 0.044 |
| AQRGSTAASAGG | 0.683 ± 0.07 |
| AQTRSVGWEFGY | 0.685 ± 0.0093 |
| ARASPPARRSPT | 0.673 ± 0.058 |
| ARCLTGFYSFTF | 0.794 ± 0.019 |
| AREEGRQNQGMP | 0.665 ± 0.042 |
| ARFGYYLGLGRC | 0.748 ± 0.065 |
| ARGGIGTCSWGG | 0.727 ± 0.0095 |
| ARHPLCLPVLLT | 0.548 ± 0.02 |
| ARIWLGSTSVSR | 0.739 ± 0.14 |
| ARLPLPGSPPFS | 0.719 ± 0.0029 |
| ARLPTYLAAPPP | 0.726 ± 0.089 |
| ARMPQVSEIALC | 0.6612 ± 0.00024 |
| ARQHGLELTNPR | 0.678 ± 0.015 |
| ARRAAPRRPPSD | 0.689 ± 0.047 |
| ARRGAGGGHKGD | 0.673 ± 0.038 |
| ARRPAESHGTTI | 0.716 ± 0.012 |
| ARRSAGGAAVPG | 0.624 ± 0.0098 |
| ARSHSPPPPRPP | 0.6723 ± 0.0029 |
| ARSRPSILSGPE | 0.689 ± 0.062 |
| ARVAPPWRSTRA | 0.683 ± 0.049 |
| ASATCQKGSIPR | 0.677 ± 0.036 |
| ASCPLHFTDIRP | 0.679 ± 0.018 |
